The source of these data is article PMC7094161.

Assay [1] has as its target CDC25C substrate peptide of the EKAR construct. The experiment in a line: FRET or BRET; FRET/FLIM: EGFP fluorescence lifetime of EKAR constructs (WW domain and peptide on one chain) in fixed, mounted COS cells; serum in the medium. (In general: In BRET a luciferase serves as donor, and the signal depends on an acceptor being close.)
Assay [2] shares this target. The experiment in a line: FRET or BRET; FRET/FLIM: EGFP fluorescence lifetime of EKAR constructs (WW domain and peptide on one chain) in living COS cells; serum in the medium.

Chain of Pin1 WW domain of the EKAR construct (Q13526 5-39): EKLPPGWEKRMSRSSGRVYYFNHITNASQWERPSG

For “Pin1 WW domain of the EKAR construct (from UniProt Q13526 5-39) (domain or fragment)”, the EGFP fluorescence lifetime came out at 1.68 ns in assay [1] and 2.12 ns in assay [2].
